Experimental data from paper doi:10.1101/2023.12.11.571162, “Single molecule studies of the native hair cell mechanosensory transduction complex” (bioRxiv, 2023).

B1: recombinant protocadherin-15 (PCDH15), Mus musculus, His-tagged construct co-expressed with LHFPL5 (natural protein)
chain: not shown
notes: Synthesised by Genscript, cloned into pEG BacMam; also called recombinant PCDH15; His-tagged PCDH15; source: HEK293 tsa201 cells, BacMam co-infection with LHFPL5, purified as a complex (Strep-Tactin, TALON, SEC) in digitonin
B2: native protocadherin-15 (PCDH15) from mouse cochlea or utricle (natural protein)
chain: not shown
notes: protocadherin-15, mouse, endogenous in cochlea and utricle; also called native PCDH15; source: endogenous, cochlea or utricle of post-natal day 6 mice, detergent supernatant (1% C12M, 0.2% CHS)

Tests used:
[1] = target: the molecule itself; assay: single molecule pull-down (SiMPull), photobleaching step counting; purified recombinant PCDH15/LHFPL5 complex captured by mAb 8D1; labelled in separate experiments with 39G7 Fab-GFP or anti-LHFPL5 Fab-GFP; bleaching steps counted
[2] = target: the molecule itself; assay: single molecule pull-down (SiMPull), photobleaching step counting; native complexes from mouse cochlea supernatant captured by mAb 8D1; labelled with 39G7 Fab-GFP or anti-LHFPL5 Fab-GFP; bleaching steps counted

| Protein | stoichiometry N [1] | stoichiometry N [2] |
| --- | --- | --- |
| B1 | 2 | – |
| B2 | – | 2 |
